Here are results for 1 protein from PMC10316083, “Thermotoga maritima oriC involves a DNA unwinding element with distinct modules and a DnaA-oligomerizing region with a novel directional binding mode” (The Journal of Biological Chemistry, 2023).

This series deals with the molecule itself. The series can be described thus: native gel or EMSA; ATP-bound tmaDnaA on a 30 bp DNA (300 nM) with the oppositely oriented tmaDnaA boxes 2 and 3; complexes with one (C1) or two (C2) tmaDnaA molecules; 8% polyacrylamide gel, GelStar staining; self-interaction read from the preference for C2 on DNA. In general terms: In EMSA bound probe runs differently from free probe, usually more slowly.

B1: Thermotoga maritima DnaA initiator (tmaDnaA), wildtype (natural protein, UniProt P46798 1-440, looked up)
chain: MKERILQEIKTRVNRKSWELWFSSFDVKSIEGNKVVFSVGNLFIKEWLEKKYYSVLSKAVKVVLGNDATFEITYEAFEPHSSYSEPLVKKRAVLLTPLNPDYTFENFVVGPGNSFAYHAALEVAKHPGRYNPLFIYGGVGLGKTHLLQSIGNYVVQNEPDLRVMYITSEKFLNDLVDSMKEGKLNEFREKYRKKVDILLIDDVQFLIGKTGVQTELFHTFNELHDSGKQIVICSDREPQKLSEFQDRLVSRFQMGLVAKLEPPDEETRKSIARKMLEIEHGELPEEVLNFVAENVDDNLRRLRGAIIKLLVYKETTGKEVDLKEAILLLKDFIKPNRVKAMDPIDELIEIVAKVTGVPREEILSNSRNVKALTARRIGMYVAKNYLKSSLRTIAEKFNRSHPVVVDSVKKVKDSLLKGNKQLKALIDEVIGEISRRALSG
notes: DnaA chromosomal replication initiator protein of Thermotoga maritima (tmaDnaA); also called WT tmaDnaA; ATP-tmaDnaA; source: purified as described previously (40); plasmid pTHMA-1
Regarding B1, the binding result is “binds”.
